Laboratory results taken from patent publication US20090291083A1, “BARB4 TARGET, ANTIBODY DESIGNATED BARB4, BARB4 RELATED ANTIBODIES, AND METHODS OF MAKING AND USING SAME” (PATRYS LIMITED, priority 2008, published 2009).

System: membrane preparations of tumor cell line BXPC-3
Assay: Western blot on membrane preparations
Type: binding, human
Conditions: BXPC-3 membrane preparation; FIG. 6A
Protocol: For BARB4 target assays the established, human pancreatic adenocarcinoma cell line BXPC-3 was used. The adherent cells were grown to a confluence of about 90% in RPMI 1640 culture medium (PAA, Vienna) supplemented with 10% (V/V) FCS, 1% (V/V) glutamine and 1% (V/V) streptomycin/penicillin at 37° C. and a 7% CO2 atmosphere (HERA cell incubator, Heraeus, Hanau). Sterile tissue culture dishes 145/20 (greiner bio-one, Frickenhausen) were prepared with 1 ml cell suspension containing 2−3×10^6 cells/ml (suspension medium is equivalent to culture medium described above) and 50 ml supplemented RPMI 1640 medium. After three or four days the carcinoma cells could be harvested for membrane extract preparation. For this purpose, BXPC-3 cells were washed with phosphate-buffered saline (PBS; containing 0.137 M NaCl, 0.027 M KCl, 0.065 M Na2HPO4×2H2O, 0.015 M KH2PO4) and the adherent cells were scraped off the tissue culture dishes. The cell suspension was centrifuged (1500×g for 5 minutes at room temperature). The supernatant was removed and the pellet was washed again with PBS followed by a further centrifugation step (1500×g, 5 minutes at room temperature). Afterwards the supernatant was removed again. A single cell pellet includes carcinoma cells from 10 tissue culture dishes. It was immediately used for membrane extract preparation or stored at −20° C. […]

B1: BARB4: human IgG antibody produced by hybridoma DSMZ Deposit No. DSM ACC2876; heavy chain SEQ ID NOs:1, 3, 5, 7, light chain SEQ ID NO:9 (antibody, V domains shown)
VH: QVQLVESGGGVVQPGRSLRLSCAASGFRFTTHGMHWVRQAPGKGLEWVAVISYNGRNKYYADYVNGRFTISRDDSRDTVFLQMNSLRPEDTAMYYCAKVRGDGYGDYGYFDYWGHGTLVSVSS
VL: QSALTQPRSVSGSPGQSVTISCTGTYNYVSWYQQHPGKAPKLMIFDVSRRSSGVPDRFSGSKSGNTASLTISGLQAEDEADYYCCSYGGTYLYVFGTGTTVTVLGQ
binding on Western blots with membrane preparations: binds to a membrane molecule with a relative molecular mass between 70 and 85 kD
